From paper PMC5176304 (PLoS ONE, 2016) come the findings set out here.

What all share (experiment): SEC-MALS; size exclusion chromatography with multi-angle light scattering of Ni-purified uricases dialyzed into PBS; noncovalent molecular weight compared with the theoretical tetramer
(In general: SEC sorts molecules by how far they enter the pores of the column.)

In data set [1] the target is Deinococcus geothermalis uricase (Deinococcus geothermalis).
For data set [2], the target named is Deinococcus radiodurans uricase (Deinococcus radiodurans).
Data set [3] deals with Granulicella tundricola uricase (Granulicella tundricola).
For data set [4], the target named is Kyrpidia tusciae uricase (Kyrpidia tusciae).
For data set [5], the target named is Solibacter usitatus uricase (Solibacter usitatus).
Data set [6] has as its target Terriglobus saanensis uricase (Terriglobus saanensis).
Data set [7] deals with the molecule itself.

In general, stoichiometry N refers to the number of molecules, sites or subunits per partner or assembly.

“Deinococcus geothermalis uricase (enzyme)” showed a stoichiometry N in data set [1] of 4.

Consider “Deinococcus radiodurans uricase (enzyme)”, for which, in data set [2], the stoichiometry N was 4. “Granulicella tundricola uricase (enzyme)” came in with a stoichiometry N in data set [3] of 4. The molecule Kyrpidia tusciae uricase (enzyme) displayed a stoichiometry N in data set [4] of 4. Consider Solibacter usitatus uricase (enzyme), for which the stoichiometry N in data set [5] was found to be 4.

In data set [6], Terriglobus saanensis uricase (enzyme) came in with a stoichiometry N of 4.

B1: Arthrobacter globiformis uricase (C-terminally truncated by 11 amino acids, N-terminal His tag) (enzyme, UniProt D0VWQ1 1-291, looked up)
chain: MTATAETSTGTKVVLGQNQYGKAEVRLVKVTRNTARHEIQDLNVTSQLRGDFEAAHTAGDNAHVVATDTQKNTVYAFARDGFATTEEFLLRLGKHFTEGFDWVTGGRWAAQQFFWDRINDHDHAFSRNKSEVRTAVLEISGSEQAIVAGIEGLTVLKSTGSEFHGFPRDKYTTLQETTDRILATDVSARWRYNTVEVDFDAVYASVRGLLLKAFAETHSLALQQTMYEMGRAVIETHPEIDEIKMSLPNKHHFLVDLQPFGQDNPNEVFYAADRPYGLIEATIQREGSRAD
notes: Synthetic gene in a modified pET15b-based vector; also called RGD-containing Arthrobacter globiformis uricase; uricase containing RGD
As to B1, the “stoichiometry N” value in data set [7] was 4.
